Laboratory results from patent US7482133B2, “Catalytic domains of β(1,4)-galactosyltransferase I having altered donor and acceptor specificities, domains that promote in vitro protein folding, and methods for their use” (The United States of America as represented by the …, priority 2003, dated 2009).

Key:
Format in all cases: biochemical
[1] = GalNAc-T activity in absence and presence of LA, acceptor Glc; details: in the presence of LA
Experimental: Gal-T and GalNAc-T Enzyme Assays: The protein concentrations were measured using the Bio-Rad protein assay kit, based on the method of Bradford and further verified on SDS gel. […] The activities were measured using UDP-Gal or UDP-GalNAc as sugar nucleotide donors, and GlcNAc and Glc as the acceptor sugars. For the specific activity measurements, a 100-μl incubation mixture containing 50 mM β-benzyl-GlcNAc, 10 mM MnCl2, 10 mM Tris-HCl, pH 8.0, 500 μM UDP-Gal or UDP-GalNAc, 20 ng of Gal-T1, and 0.5 μCl of [^3H]UDP-Gal or [^3H]UDP-GalNAc was used for each Gal-T or GalNAc-T reaction. The incubation was carried out at 37° C. for 10 min. […] The column was washed successfully with 300, 400, and 500 μl of water, and the column flow-through was diluted with Biosafe scintillation fluid; radioactivity was measured with a Beckman counter. A reaction without the acceptor sugar was used as a control. […]

[2] = GalNAc-T specific activity assay; details: for UDP-GalNAc → GlcNAc GalNAc-T activity: donor 500 μM, acceptor β-benzyl-GlcNAc 25 mM
Experimental: (§1) For example, the galactose and N-acetylgalactosyltransferase activity of β(1,4)-galactosyltransferase I can be determined using the following assay conditions. […], 10 mM MnCl2, 10 mM Tris-HCl (pH 8.0), 500 μM UDP-Gal or UDP-GalNAc, and 20 ng of β(1,4)-galactosyltransferase I can be incubated at 37° C. for 10 minutes to promote coupling of a donor sugar to an acceptor sugar. While these conditions are provided as an example, it is understood that many other conditions may be used to chemically link a donor to an acceptor using the altered catalytic domains of the invention.
(§2) Gal-T and GalNAc-T Enzyme Assays: The protein concentrations were measured using the Bio-Rad protein assay kit, based on the method of Bradford and further verified on SDS gel. […] The activities were measured using UDP-Gal or UDP-GalNAc as sugar nucleotide donors, and GlcNAc and Glc as the acceptor sugars. For the specific activity measurements, […], 10 mM MnCl2, 10 mM Tris-HCl, pH 8.0, 500 μM UDP-Gal or UDP-GalNAc, 20 ng of Gal-T1, and 0.5 μCl of [^3H]UDP-Gal or [^3H]UDP-GalNAc was used for each Gal-T or GalNAc-T reaction. The incubation was carried out at 37° C. for 10 min. […] The column was washed successfully with 300, 400, and 500 μl of water, and the column flow-through was diluted with Biosafe scintillation fluid; radioactivity was measured with a Beckman counter. A reaction without the acceptor sugar was used as a control. A similar assay was carried out to measure the GalNAc-T activity with Glc and other acceptors in the presence of 50 μM bovine LA (Sigma).

[3] = Gal-T specific activity assay; details: donor 500 μM; acceptor β-benzyl-GlcNAc 25 mM (10 mM for C342T); saturating conditions
Experimental: as §1, §2

[4] = GlcNAc-T specific activity assay; details: donor 500 μM; acceptor β-benzyl-GlcNAc 25 mM
[5] = Two-substrate kinetic constants, Gal-T reaction; details: UDP-galactose → GlcNAc
Excerpt: Studies for Determining the Kinetic Constants: The true Km of the donor (KA) and of the acceptor (KB), the dissociation constant of the donor, Ki(a), and kcat were obtained using two-substrate analyses and the primary plots of five concentrations of donor (UDP-Gal or UDP-GalNAc) and five concentrations of acceptor, and the corresponding secondary plots of the intercepts and slopes. Initial rate conditions were linear with respect to time. A suitable range of donor and acceptor concentrations were chosen, which allowed an accurate Michaelis-Menten plot to be derived. The data were also analyzed for a general two-substrate system using the following equations (Zhang et al., Glycobiology, 9:815-822 (1999)) with the software EnzFitter, a Biosoft nonlinear curve-fitting program for Windows.
[formula] Here v is the initial velocity and the rate equation for sequential symmetrical initial velocity pattern associated with Equation 1, an ordered or random equilibrium mechanism in which substrate A dissociates well from the E-S complex with a dissociation constant of Ki(a). Equation 2 is for asymmetric initial velocity pattern for a double displacement or “ping-pong” mechanism. The kinetic parameters KA, KB, Ki(a), and Vmax, were obtained from the fitted curves using the above rate equations. The graphical method and EnzFitter program gave very similar kinetic parameters. In the N-acetylgalactosamine transferase (GalNAc-T) assay, the maximum substrate concentrations used for UDP-GalNAc and GlcNAc were 1 and 200 mM, respectively. However, in the galactose transferase (Gal-T) assay, because of the limited solubility of GlcNAc in water, the concentration of GlcNAc was limited to no more than […] (which is 2-fold higher than its Km value), whereas up to 300 μM UDP-Gal were used.

[6] = β4Gal-T1 enzyme assay of in vitro folded CD and SRCD proteins; details: condition I or VIII
Experimental: β4Gal-T1 Enzyme Assays: The in vitro assay for β4Gal-T1 enzyme activity was performed as described (Boeggeman et al., Glycobiology, 12:395-407 (2002)). The ^3H-labeled-UDP-Gal was used as sugar donor and GlcNAc as the sugar acceptor. A reaction without GlcNAc was used as a control.
Binding of recombinant proteins to UDP-affinity column: UDP-agarose was used to bind the active proteins at 4° C. Columns containing 1 ml bed volume of UDP-agarose were pre-equilibrated with 10 ml of 25 mM cacodylic buffer, pH 7.6, containing 25 mM MnCl2. The renatured protein solutions (0.5 mg) were adjusted to the pre-equilibration buffer conditions and applied to the columns. After loading the sample, the pass-through was re-cycled. It was then analyzed for the unbound protein by SDS-PAGE. The columns were washed 3× with 1-ml portions of equilibration buffer. The bound protein was eluted with the elution buffer consisting of 25 mM cacodylic buffer, pH 7.6, 25 mM EDTA and 1 M NaCl. Fractions of 0.5 ml were collected from the columns, and aliquots were analysed by SDS-PAGE. For enzymatic analysis the appropriate fractions were pooled and dialysed against 50 mM Tris-HCl pH 8.0 at 4° C. […]

Molecule	acceptor preference of GalNAc transfer [1]	UDP-galactose → GlcNAc Gal-T activity [3]	UDP-GlcNAc → GlcNAc GlcNAc-T activity [4]	UDP-GalNAc → GlcNAc GalNAc-T activity [2]	also measured
Y289N: bovine Gal-T1 catalytic domain, Tyr-289 exchanged with Asn (protein) SLTACPEESPLLVGPMLIEFNIPVDLKLIEQQNPKVKLGGRYTPMDCISPHKVAIIILFRNRQEHLKYWLYYLHPMVQRQQLDYGIYVINQAGESMFNRAKLLNVGFKEALKDYDYNCFVFSDVDLIPMNDHNTYRCFSQPRHISVAMDKFGFSLPYVQNFGGVSALSKQQFLSINGFPNNYWGWGGEDDDIYNRLAFRGMSVSRPNAVIGKTRMIRHSRDKKNEPNPQRFDRIAHTKETMLSDGLNSLTYMVLEVQRYPLYTKITVDIGTPS	transfer GalNAc preferably to Glc rather than to GlcNAc	–	–	–	galactose transferase versus N-acetylgalactosyltransferase activity ([2]; comparison in words (Table III, FIG. 1)): equally strong galactose transferase and N-acetylgalactosyltransferase activities
Y289I_C342T: bovine Gal-T1 catalytic domain (residues 130-402), Tyr-289 exchanged with Ile, with Cys-342 to Thr mutation (protein) SLTACPEESPLLVGPMLIEFNIPVDLKLIEQQNPKVKLGGRYTPMDCISPHKVAIIILFRNRQEHLKYWLYYLHPMVQRQQLDYGIYVINQAGESMFNRAKLLNVGFKEALKDYDYNCFVFSDVDLIPMNDHNTYRCFSQPRHISVAMDKFGFSLPYVQIFGGVSALSKQQFLSINGFPNNYWGWGGEDDDIYNRLAFRGMSVSRPNAVIGKTRMIRHSRDKKNEPNPQRFDRIAHTKETMLSDGLNSLTYMVLEVQRYPLYTKITVDIGTPS	transfer GalNAc preferably to Glc rather than to GlcNAc	8.8 pmol/min/ng	6.2 pmol/min/ng	14.7 pmol/min/ng	affinity to UDP-GalNAc ([2]; FIG. 1, in words): slightly weaker affinity; specific N-acetylgalactosyltransferase activity relative to Y289L ([2]; at the substrate concentration used): half that of Y289L
C342T: catalytic domain of bovine Gal-T1 (residues 130-402) with the C342T mutation (protein, UniProt P08037 130-402, looked up, variant C342T, catalytic domain, catalytic domain of bovine Gal-T1 (residues 130-402) with the C342T mutation) SLTACPEESPLLVGPMLIEFNIPVDLKLVEQQNPKVKLGGRYTPMDCISPHKVAIIIPFRNRQEHLKYWLYYLHPILQRQQLDYGIYVINQAGESMFNRAKLLNVGFKEALKDYDYNCFVFSDVDLIPMNDHNTYRCFSQPRHISVAMDKFGFSLPYVQYFGGVSALSKQQFLSINGFPNNYWGWGGEDDDIYNRLAFRGMSVSRPNAVIGKTRMIRHSRDKKNEPNPQRFDRIAHTKETMLSDGLNSLTYMVLEVQRYPLYTKITVDIGTPS	–	11.8 pmol/min/ng	0 pmol/min/ng	0.1 pmol/min/ng	KA (true Km of the donor), Gal-T [5]: 98 (6) μM; KB (true Km of the acceptor), Gal-T [5]: 11 (1) MM; Kcat., Gal-T ([5]; unit assumed): 14 s⁻¹
bovine CDβ4Gal-T1: catalytic domain (residues 130-402) of bovine β4Gal-T1 (protein, UniProt P08037 130-402, looked up, fragment, catalytic domain, catalytic domain (residues 130-402) of bovine β4Gal-T1) SLTACPEESPLLVGPMLIEFNIPVDLKLVEQQNPKVKLGGRYTPMDCISPHKVAIIIPFRNRQEHLKYWLYYLHPILQRQQLDYGIYVINQAGESMFNRAKLLNVGFKEALKDYDYNCFVFSDVDLIPMNDHNTYRCFSQPRHISVAMDKFGFSLPYVQYFGGVSALSKQQFLSINGFPNNYWGWGGEDDDIYNRLAFRGMSVSRPNAVIGKCRMIRHSRDKKNEPNPQRFDRIAHTKETMLSDGLNSLTYMVLEVQRYPLYTKITVDIGTPS	–	–	–	–	specific activity before and after binding on UDP-agarose columns [6]: did not change
